According to the supplement of paper PMC10567573:

B1: MYL5 (parent)
chain: FQFASIDVAGNLDYKALSYVITHG
B2: TMEM106C (parent)
chain: YVTTNVSLIPPRSEQLVNFTGKAE

Variants of: B1
Assay: protein stability index of a GFP-peptide fusion (GPS, HEK-293T) (PSI 1-6); higher = more stable
Details: c terminus: a fixed tail appended
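Further: lentivirally expressed fusions sorted by FACS into six bins by GFP to DsRed ratio, PSI derived from sequencing read proportions per bin multiplied by bin number.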

Row | Variant | protein stability index
1 | V20D | 1.34
2 | V20C | 3.44
3 | V20F | 3.64
4 | V20Q | 2.96
5 | V20K | 2.23
6 | V20P | 1.32
7 | V20A | 3.37
8 | V20T | 2.29
9 | V20M | 1.49
10 | V20N | 1.7
11 | V20H | 3.27
12 | F3K | 1.43
13 | F3R | 1.75
14 | F3V | 2.75
15 | F3D | 1.34
16 | F3P | 2.84
17 | F3G | 3
18 | F3A | 2.17
19 | F3H | 2.11
20 | F3M | 2.36
21 | A9Y | 4.67
22 | A9N | 3.37
23 | A9L | 2.77
24 | A9P | 1.7
25 | A9H | 2.26

Row | Variant | protein stability index
26 | A9T | 3.01
27 | S5F | 3.77
28 | S5D | 2.43
29 | S5N | 3.74
30 | S5W | 2.62
31 | S5M | 3.67
32 | S5K | 2.4
33 | S5C | 1.36
34 | S5Y | 3.17
35 | S5V | 2.69
36 | S5A | 3.09
37 | T22E | 2.02
38 | T22G | 3.98
39 | T22N | 2.52
40 | T22C | 2.52
41 | T22M | 2.95
42 | T22I | 2.55
43 | T22H | 3.83
44 | T22D | 1.8
45 | T22W | 4.39
46 | S18M | 3.46
47 | S18I | 2.66
48 | S18K | 1.62
49 | S18E | 1.56
50 | S18D | 1.75

Row | Variant | protein stability index
51 | G24A | 3
52 | G24R | 3.26
53 | G24T | 3.18
54 | H23T | 2.42
55 | H23R | 2.65
56 | H23E | 2.44
57 | H23K | 1.43
58 | Y19E | 2.89
59 | Y19R | 2.11
60 | Y19D | 1.53
61 | Y19T | 1.83
62 | Y19W | 2.69
63 | Y19F | 1.87
64 | Y19M | 2.44
65 | Y19S | 1.73
66 | Y19V | 2.19
67 | Y19Q | 3.41
68 | L17D | 1.94
69 | L17K | 2.71
70 | L17Y | 2.8
71 | L17Q | 2.03
72 | L17N | 1.39
73 | L17E | 1.44
74 | L17H | 2.06
75 | L17P | 2.35

Row | Variant | protein stability index
76 | L17W | 2.39
77 | L17M | 3.7
78 | G10D | 2.05
79 | G10K | 2.08
80 | G10H | 1.84
81 | G10W | 1.35
82 | G10L | 1.72
83 | G10Q | 3.41
84 | G10E | 3.19
85 | G10F | 2.96
86 | Q2P | 3.25
87 | Q2A | 1.56
88 | Q2R | 4.64
89 | Q2T | 2.75
90 | Q2H | 2.06
91 | Q2V | 3.19
92 | Q2L | 2.78
93 | Q2G | 3.54
94 | I21M | 1.48
95 | I21A | 2.79
96 | I21V | 2.26
97 | I21E | 2.11
98 | I21S | 1.72
99 | I21T | 1.54
100 | I21R | 1.03

Row | Variant | protein stability index
101 | I21Q | 1.9
102 | I21N | 1.93
103 | I21P | 2.18
104 | I21K | 1.64
105 | K15E | 1.14
106 | K15F | 2.81
107 | K15T | 3.79
108 | K15S | 2.31
109 | K15Q | 3.65
110 | K15V | 2.4
111 | K15Y | 3.8
112 | K15A | 3.38
113 | K15G | 1.5
114 | K15N | 2.34
115 | Y14K | 2.48
116 | Y14R | 3.3
117 | Y14D | 2.21
118 | Y14S | 2.15
119 | Y14P | 2.28
120 | Y14Q | 2.03
121 | Y14T | 3.5
122 | Y14W | 3.44
123 | Y14H | 2.1
124 | Y14N | 2.27
125 | Y14E | 1.25

Row | Variant | protein stability index
126 | A4P | 2.19
127 | A4H | 4.96
128 | A4N | 2.56
129 | A4S | 2.84
130 | A4T | 2.81
131 | A4V | 1.99
132 | I6N | 3.39
133 | I6T | 1.66
134 | I6Q | 2.92
135 | I6M | 3.92
136 | I6H | 4
137 | I6P | 2.43
138 | I6F | 4.13
139 | I6S | 1.18
140 | I6E | 1.49
141 | I6Y | 2.46
142 | D13P | 2.51
143 | D13A | 3.41
144 | D13V | 2.86
145 | V8D | 4.22
146 | V8W | 2.9
147 | V8S | 2.09
148 | V8C | 2.11
149 | V8M | 2.67
150 | V8G | 3.17

Row | Variant | protein stability index
151 | V8K | 2.17
152 | V8H | 3.1
153 | V8R | 2.8
154 | V8E | 2.42
155 | N11S | 3.23
156 | N11C | 3.05
157 | N11P | 3.96
158 | N11D | 1.17
159 | F1R | 1.67
160 | F1A | 1.63
161 | F1D | 1.43
162 | F1H | 1.79
163 | F1P | 2.79
164 | F1Q | 2.23
165 | F1K | 1.27
166 | F1V | 3.25
167 | F1L | 1.89
168 | F1Y | 2.68
169 | F1S | 1.18
170 | F1G | 2.09
171 | F1T | 1.55
172 | D7E | 2.83
173 | D7I | 3.19
174 | D7Y | 3.46
175 | D7G | 2.38

Row | Variant | protein stability index
176 | D7K | 2.52
177 | D7R | 1.11
178 | L12D | 1.67
179 | L12V | 2.56
180 | L12P | 2.88
181 | L12S | 2.44
182 | L12F | 4.33
183 | L12Y | 2.45
184 | L12E | 3.08
185 | L12C | 1.24
186 | A16T | 2.44
187 | A16K | 2.25
188 | A16L | 2.64
189 | A16F | 3.33
190 | A16E | 2.37
191 | A16P | 5.11
192 | A16S | 2.11
193 | A16V | 3.37
194 | A16D | 3.18
195 | A16Q | 2.81

Variants of: B2
Assay: as above
Details: c terminus: a fixed tail appended

Row | Variant | protein stability index
196 | L8G | 2.39
197 | L8D | 2.44
198 | L8F | 2.54
199 | L8A | 2.21
200 | L8E | 2.61
201 | L8C | 1.66
202 | V6Q | 1.68
203 | V6A | 1.86
204 | V6N | 2.26
205 | V6L | 2.06
206 | V6R | 1.92
207 | V6I | 1.86
208 | V6S | 1.91
209 | V6C | 1.82
210 | V6M | 1.75
211 | V6Y | 2.76
212 | V6G | 1.77
213 | V6F | 3.64
214 | V6K | 1.87
215 | V6T | 2.02
216 | V6P | 2
217 | V6D | 2.37
218 | V6E | 2.36
219 | V6H | 1.59

Row | Variant | protein stability index
220 | V6W | 2.57
221 | V2N | 4.08
222 | V2H | 2.62
223 | V2S | 3.79
224 | V2M | 3.03
225 | V2A | 2.81
226 | V2Q | 3.28
227 | V2Y | 3.22
228 | V2E | 4.58
229 | V2P | 3.98
230 | V2L | 2.83
231 | V2K | 3.51
232 | V2I | 2.67
233 | V2C | 2.3
234 | V2D | 4.58
235 | V2F | 2.98
236 | V2T | 3.48
237 | V2W | 2.66
238 | V2G | 4.17
239 | V2R | 3.23
240 | Y1S | 3.24
241 | Y1K | 3.61
242 | Y1M | 3.08
243 | Y1H | 3.88

Row | Variant | protein stability index
244 | Y1Q | 3.17
245 | Y1P | 3.49
246 | Y1R | 3.44
247 | Y1F | 2.21
248 | Y1L | 2.94
249 | Y1N | 3.79
250 | Y1T | 3.44
251 | Y1V | 2.19
252 | Y1E | 3.54
253 | Y1C | 2.4
254 | Y1G | 4
255 | Y1D | 3.69
256 | Y1W | 2.15
257 | Y1A | 3.53
258 | Y1I | 2.46
259 | T3F | 2.58
260 | T3L | 2.15
261 | T3E | 2.99
262 | T3P | 3.42
263 | T3W | 2.91
264 | T3Y | 2.45
265 | T3K | 2.18
266 | T3V | 1.98
267 | T3Q | 2.64

Row | Variant | protein stability index
268 | T3I | 2.12
269 | T3S | 1.98
270 | T3G | 2.11
271 | T3R | 2.52
272 | T3N | 1.82
273 | T3C | 2.3
274 | T3M | 1.46
275 | T3H | 1.98
276 | T3D | 1.9
277 | T3A | 2.75
278 | S7D | 2.37
279 | S7K | 1.36
280 | S7Y | 3.23
281 | S7Q | 2.27
282 | S7P | 2.81
283 | S7T | 2.64
284 | S7N | 2.18
285 | S7W | 1.54
286 | S7V | 1.79
287 | S7F | 1.83
288 | S7G | 2.36
289 | S7H | 2.29
290 | S7M | 1.57
291 | S7C | 2.56

Row | Variant | protein stability index
292 | S7L | 2.45
293 | S7I | 3.34
294 | S7A | 1.31
295 | S7E | 2.13
296 | S7R | 2.13
297 | N5Y | 2.98
298 | N5P | 2.67
299 | N5C | 2.28
300 | N5Q | 2.71
301 | N5V | 1.69
302 | N5L | 2.32
303 | N5S | 1.63
304 | N5W | 3.52
305 | N5A | 1.91
306 | N5G | 1.22
307 | N5D | 1.96
308 | N5R | 2.17
309 | N5H | 1.66
310 | N5F | 2.64
311 | N5I | 2.24
312 | N5M | 2.16
313 | N5T | 2.52
314 | N5E | 2.05
315 | N5K | 2.41

Row | Variant | protein stability index
316 | T4P | 2.43
317 | T4G | 1.89
318 | T4Q | 2.54
319 | T4A | 1.71
320 | T4K | 1.77
321 | T4R | 2.23
322 | T4I | 1.75
323 | T4H | 2.07
324 | T4W | 2.85
325 | T4N | 2.1
326 | T4M | 2.59
327 | T4C | 1.29
328 | T4V | 1.51
329 | T4D | 2.03
330 | T4E | 1.94
331 | T4F | 1.43
332 | T4S | 1.86
333 | T4Y | 2.24
334 | T4L | 2.45
